Measurements published in patent US20230076063.

Tests used:
[1] = test system: MamB DNA methyltransferase (Mycobacterium tuberculosis); assay: cell_activity; conditions: SMRT sequencing kinetics
[2] = test system: MamA DNA methyltransferase (Mycobacterium tuberculosis); assay: cell_activity; conditions: SMRT sequencing kinetics; mostly fully methylated reads

| Substance | activity (mean SMALR native score) [1] | activity (mean SMALR native score) [2] |
| --- | --- | --- |
| MamB target motif sites | 2.19 | – |
| CTGGAG (double strand) [MamA target motif sites] | – | 2.14 |
